T1: PVRIG on human CMV pp65-specific CD8+ T cells (human, UniProt Q6DKI7 41-326)
T1 sequence (looked up): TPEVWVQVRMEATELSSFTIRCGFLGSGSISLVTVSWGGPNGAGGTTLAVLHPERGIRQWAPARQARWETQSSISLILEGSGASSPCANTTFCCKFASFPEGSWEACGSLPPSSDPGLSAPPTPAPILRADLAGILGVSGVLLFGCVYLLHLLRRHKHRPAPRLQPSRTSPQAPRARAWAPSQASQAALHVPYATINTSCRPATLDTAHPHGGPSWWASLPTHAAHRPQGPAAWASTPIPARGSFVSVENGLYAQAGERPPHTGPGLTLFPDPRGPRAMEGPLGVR

T2: TIGIT on human CMV pp65-specific CD8+ T cells (human, UniProt Q495A1 22-244)
T2 sequence (looked up): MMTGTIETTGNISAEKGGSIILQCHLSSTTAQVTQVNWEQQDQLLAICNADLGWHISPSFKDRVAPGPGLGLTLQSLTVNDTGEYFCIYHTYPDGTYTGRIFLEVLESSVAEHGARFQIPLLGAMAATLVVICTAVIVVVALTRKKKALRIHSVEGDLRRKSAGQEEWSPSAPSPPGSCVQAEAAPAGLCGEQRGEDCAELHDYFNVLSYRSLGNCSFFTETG

T3: Human PVRIG-HIS (prepared in-house) (human, UniProt Q6DKI7 41-171, limits assumed)
T3 construct: In-house protein; also called PVRIG-His (Compugen, lot 20170623); biotinylated PVRIG-His; not shown: His tag
T3 sequence (looked up): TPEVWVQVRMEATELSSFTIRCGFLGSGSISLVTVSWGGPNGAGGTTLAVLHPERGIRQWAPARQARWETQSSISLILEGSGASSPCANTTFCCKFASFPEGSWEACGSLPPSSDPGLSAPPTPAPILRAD

T4: Human TIGIT-HIS monomer (Sino Biological) (human, UniProt Q495A1 22-141)
T4 construct: Bought protein; also called TIGIT-His (Sino Biological cat #10917-H08H); biotinylated TIGIT-His; not shown: His tag
T4 sequence (looked up): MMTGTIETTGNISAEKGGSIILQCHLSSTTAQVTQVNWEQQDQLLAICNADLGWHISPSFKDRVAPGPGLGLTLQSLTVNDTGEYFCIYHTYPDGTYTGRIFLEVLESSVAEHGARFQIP


Legend:
[1] = target: TIGIT on human CMV pp65-specific CD8+ T cells (human) (UniProt Q495A1); test: flow cytometry on CMV pp65-specific CD8+ T cells, day 11, against an isotype control
[2] = target: T1, PVRIG on human CMV pp65-specific CD8+ T …; test: cell-based or functional assay
[3] = target: T2, TIGIT on human CMV pp65-specific CD8+ T …; test: cell-based or functional assay
[4] = target: T3, Human PVRIG-HIS (prepared in-house); test: SPR (ProteOn XPR 36, 22 C); BsAb captured on anti-human Fc, PVRIG-HIS as analyte, 1:1 fit
Description: (§1) All experiments were performed using a ProteOn XPR 36 instrument at 22° C. while samples were kept at 4° C. during the assay. First, high density capture surfaces were prepared with a goat anti-human Fc polyclonal antibody (Thermo Fisher) immobilized over all vertical capture lanes and horizontal interspots on a GLC chip (Bio Rad) using standard amine coupling. […] Human TIGIT-HIS monomer was obtained from Sino Biological, while human PVRIG-HIS was prepared in-house. […] For each “single-shot kinetics” cycle on the ProteOn instrument, a different antibody was captured over two unique vertical capture lanes for two minutes. After switching the buffer flow of the ProteOn to the horizontal direction, capture surfaces were stabilized for approximately 15-20 minutes. […] Three replicates of each concentration series of antigen were injected over two independent surfaces of the captured bispecific antibody along with several cycles of buffer injections for double-referencing. […] The sensorgrams of TIGIT and PVRIG injected over the captured bispecific antibody were processed using a ProteOn version of Scrubber and were fit to a 1:1 kinetic binding model, including a term for mass transport.

[5] = target: T4, Human TIGIT-HIS monomer (Sino …); test: SPR (ProteOn XPR 36, 22 C); BsAb captured on anti-human Fc, TIGIT-HIS monomer as analyte; kd/ka with kd held constant; rough estimate
Description: as §1

[6] = target: T4, Human TIGIT-HIS monomer (Sino …); test: SPR (ProteOn XPR 36, 22 C); BsAb captured on anti-human Fc, TIGIT-HIS monomer as analyte, 1:1 fit with kd held constant; rough estimate
Description: as §1

[7] = target: T4, Human TIGIT-HIS monomer (Sino …); test: SPR (ProteOn XPR 36, 22 C); BsAb captured on anti-human Fc, TIGIT-HIS monomer as analyte; value fixed, not fitted, because too little dissociation was seen in 15 min
Description: as §1

Molecule | MFIr (MFI of target antibody divided by MFI of control antibody) [1] [fold] | IFN-γ production EC50, donor 4 (both receptors blocked) [2] [nM] | IFN-γ production EC50, donor 72 (both receptors blocked) [2] [nM] | IFN-γ production EC50, donor 4 (both receptors blocked) [3] [nM] | IFN-γ production EC50, donor 72 (both receptors blocked) [3] [nM] | Kd [4] [nM] | koff [4] [s⁻¹] | kon [4] [M⁻¹ s⁻¹] | Kd [5] [pM] | kon [6] [M⁻¹ s⁻¹] | koff [7] [s⁻¹]
anti-TIGIT (clone: MBSA43)-allophycocyanin (APC; e-Bioscience) (antibody) | 4 |  |  |  |  |  |  |  |  |  | 
CHA.7.518.1.H4(S241P)/CPA.9.086 bispecific antibody (bispecific antibody, human IgG4 S228P, kappa, lambda, also called CHA.7.518.1.H4(S241P)/CPA.9.086 BsAb; TIGIT-PVRIG Bispecific antibody) heavy 1: QVQLVQSGAEVKKPGASVKVSCKASGYTFTDYNINWVRQAPGQGLEWMGYIYPYIGGSGYAQKFQGRVTMTRDTSTSTVYMELSSLRSEDTAVYYCAREDKTARNAMDYWGQGTLVTVSSASTKGPSVFPLAPCSRSTSESTAALGCLVKDYFPEPVTVSWNSGALTSGVHTFPAVLQSSGLYSLSSVVTVPSSSLGTKTYTCNVDHKPSNTKVDKRVESKYGPPCPPCPAPEFLGGPSVFLFPPKPKDTLMISRTPEVTCVVVDVSQEDPEVQFNWYVDGVEVHNAKTKPREEQFNSTYRVVSVLTVLHQDWLNGKEYKCKVSNKGLPSSIEKTISKAKGQPREPQVYTLPPCQDELTKNQVSLWCLVKGFYPSDIAVEWESNGQPENNYKTTPPVLDSDGSFFLYSRLTVDKSRWQEGNVFSCSVMHEALHNHYTQKSLSLSPGK light 1: DIQMTQSPSSLSASVGDRVTITCRVSENIYSNLAWYQQKPGKAPKLLIYEATNLAEGVPSRFSGSGSGTDFTLTISSLQPEDFATYYCQHFWGTPYTFGQGTKLEIKRTVAAPSVFIFPPSDEQLKSGTASVVCLLNNFYPREAKVQWKVDNALQSGNSQESVTEQDSKDSTYSLSSTLTLSKADYEKHKVYACEVTHQGLSSPVTKSFNRGEC heavy 2: EVQLVETGGGLIQPGRSLRLSCAASGFTFSSYAMHWVRQAPGKGLEWVAVISYAGEVKYYADSVKGRFTISRDNSKNTLYLQMNSLRAEDTAVYYCARDPLPLHYYGMDVWGQGTTVTVSSASGQPKAAPSVTLFPPSSEELQANKATLVCLISDFYPGAVTVAWKADSSPVKAGVETTTPSKQSNNKYAASSYLSLTPEQWKSHRSYSCQVTHEGSTVEKTVAPTECSESKYGPPCPPCPAPEFLGGPSVFLFPPKPKDTLMISRTPEVTCVVVDVSQEDPEVQFNWYVDGVEVHNAKTKPREEQFNSTYRVVSVLTVLHQDWLNGKEYKCKVSNKGLPSSIEKTISKAKGQPREPQVCTLPPSQDELTKNQVSLSCAVKGFYPSDIAVEWESNGQPENNYKTTPPVLDSDGSFFLVSRLTVDKSRWQEGNVFSCSVMHEALHNHYTQKSLSLSPGK light 2: QSALTQPRSASGNPGQRVTISCSGSSSNMGRRPVNWYQQIPGTAPKLLIYSQNQRPSGVPDRFSGSQSGTSASLTISGLQSEDEAEYFCAVWDDIGRVLQLGGGTQLAVLSSASTKGPSVFPLAPSSKSTSGGTAALGCLVKDYFPEPVTVSWNSGALTSGVHTFPAVLQSSGLYSLSSVVTVPSSSLGTQTYICNVNHKPSNTKVDKKVEPKSC |  | 0.36 | 0.53 | 0.36 | 0.53 | 0.187 | 0.00024 | 1.3e+06 | ≤ 2.6 | 3.9e+06 | ≤ 1e-05
